B1: 小鼠单克隆抗体36H6 (antibody, V domains shown)
VH: EVQLQQSGPELVNPGASVKISCKTSGYTFTEYTMHWVKQSHGKSLEWIGGINPNNGDTIYNQKFKGKATLTVDKSSSTAYMELRSLTSEDSAVFYCAREGDYYVSSYGYWGQGTTLTVSS
VL: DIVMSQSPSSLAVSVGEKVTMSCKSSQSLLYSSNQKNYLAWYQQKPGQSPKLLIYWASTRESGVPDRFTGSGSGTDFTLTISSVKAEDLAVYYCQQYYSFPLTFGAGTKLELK
B2: 小鼠单克隆抗体2B4 (antibody, V domains shown)
VH: QVQLQQPGAELVRPGASVKLSCKASGYTFTSYWMNWVKQRPEQGLEWIGRIDPYDSETHYNQKFKDKAILTVDKSSTTAYMQLSSLTSEDSAVYYCARWGTVEWFFDYWGQGTTLTVSQ
VL: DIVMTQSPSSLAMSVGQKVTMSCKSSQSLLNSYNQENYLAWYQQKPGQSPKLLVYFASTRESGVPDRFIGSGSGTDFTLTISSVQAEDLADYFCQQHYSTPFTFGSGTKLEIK

Key:
[1] = target: T1, SARS-CoV-1的RBD重组蛋白 SARS-CoV1-RBD (SARS-CoV-1, UniProt P59594 306-527); test: indirect ELISA, RBD coated at 2 μg/mL, antibody at 10, 1, 0.1 and 0.01 μg/mL
[2] = target: T1, SARS-CoV-1的RBD重组蛋白 SARS-CoV1-RBD

| Binder | binding result [1] | Kd [2] |
| --- | --- | --- |
| B1 | no binding (tested: 10μg/mL) |  |
| B2 |  | 34.1 nM |
